According to the nanobody polyreactivity screen of Harvey et al. (2022):

Assay: yeast display, Sf9 membrane polyspecificity reagent, FACS + sequencing; frameworks hold sequencing errors
In short: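 Sorting gates, low and high (top ~1%), were placed on anti-HA fluorescence to track expression and on streptavidin fluorescence to track reagent binding. A clone's polyreactivity label is taken from the gate it came out of. The reagent was 10% biotinylated, detergent-solubilized Sf9 membrane, applied for 1 hour at 4 °C to galactose-induced yeast display cells.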

| Sequence | polyreactivity (PSR sort gate) |
| --- | --- |
| QVQLVESGGGLVQAGGSLRLSCAASGRIFSTYVMGWYRQAPGKERELVAAIRNRGGSTYYADSVKGRFTISRDNAKNTVYLQMNSLKPEDTAVFYCAAEYSYRYRVSMDYWGQGTQVTVSS | high polyreactivity |
| QVQLVESGGGLVQAGGSLRLSCAASGFTFGINAMGWYRQAPGKERELVAAINQSGDRTYYADSVKGRFTISRDNAKNTVYLQMNSLKPEDTAVYYCAGPSYWGGGRYRYGYWGQGTQVTVSS | high polyreactivity |
| QVQLVESGGGLVQAGGSLRLSCAASGITFSQYAMGWYTQAPGKERELVASISEGDGTNYADSVKGRFTISRDNAKNTVYLQMNSLKPEDTAVYYCAAPRPYYWSRRYYRAFDYWGQGTQVTVSS | high polyreactivity |
| QGQLVESGGGLVQAGGSLRLSCAASGSTYLGNDMAWYIQAPGKERELVATITGSSGSTYYADSVKGRFTISRDNAKNTVYLQMNSLKPEDTAVYYCNTVYNYWDCYDYWGQGTQVTVSS | low polyreactivity |
| QVQLVESGGGLVHAGGSLRLSCAASGSTFGANAMGWYRQAPGKEREFVAAISGSGTTTYYADSVKGRFTISRDNAKNSVYLQMNSLKPEDTAVYYCAKTRKGHWLEYWGQGTQVTVSS | low polyreactivity |
| HVQLVESGGGLVQAGGSLRVSCAASGSILTRNAMGWYRQAPGKERELVAAITGSGGRTYYADSVKGRFTISRDNAKNTVDLQMNSLKPEDTAVYYCAAGWRFGRYSGDYWGQGTQVTVSS | high polyreactivity |
| QVQLVESGGGLVQAGGRLRLSCAASGRTFANYAMGWYRQAPGKERELVAAITGSGSTNYADSVKGRFTISRDNAKNTVYLQMNSLKPEDTAVYYCAAAYKPYRCLYYPNSIDFGYWGQGTQVTVSS | high polyreactivity |
| QVQLVESGGGLVQAGGSLSLSCAATGFTFRPYAMAWYRQATGKERELVAAITSGDSTNYADSVKGRFTISRDNAKKSVYLQMISVKAEDTAVFYCAADSTGRPSVSYDYWGQGTQVTVSS | low polyreactivity |
| QVHLVESGGGLVQAGGSLRLSCAATGSTFSNYAMGWNRQAPGKERELVASISNGGSTNYADSVKGRFTISRDNANNTVYLQMNSLKPVDTEVYFCIAESKAKYDYWGQGTQVSVSS | low polyreactivity |
| QVQLVESGGGLVQAGGSLRLSCAASGGIFTYYAMGGYRQAPGKERELVAAITWSGGSTYYADSVKGRFTISRDNAKNTVYLQMNSLKPEETAVYYCNAVVLHVTTDNSTFTTDDYWGHGTQVTVSS | low polyreactivity |
| QVQLVESGGGLVQEGGSLRLSCASSGYTFPYYAMGWYRQAPGKERELVAAIRSGGGTNYADSVKGRFTISRDNAKNTVYLQMNSLKPEDTADYYCAKEWAGGLYDYWGQGTQVTVSS | low polyreactivity |
| QDQLVESGGGLVQAGGSLRLSCAASGRTFLRNAMGWYRQAPGKERELVAAISRSGGSTYYADSVKGRVTISRDNAKNTVYLQMNSLKPEDTAVYYCAADDYGGYYYWGQGTQVTVSS | high polyreactivity |
| QVQLVESGGGLVQAGGSLRLSCAASGSTFPTYGMGWYRQAPGKEREFVARINWNGGGTYYADSVKGRFTISRDNAKNTVYLQMNSLKPEDTAVYYCNARKRGARFILGYDYWGQGTQVTVSS | low polyreactivity |
| QVQLVESGGGLVQAGASLRLSCAASGSTQGWYAMGRYRQAPGKERELVAAISWSGSSTYYADSVKGRFTISRDTAKNTVYLQMNSLKPEDTAVYYCATTSSEVGELRICDYWGQGTQVTVSS | low polyreactivity |
| QVQLVESGGGLVQAGGSLRLSCAASGRIFYSNVMGWYRQAPGKERELVAAISGRTGGTYYADSVKGRFTISRDNAKNTVYLQMNSLKPEATAVYYCAARVIYYYGSGPYDYWGQGTQVTVSS | low polyreactivity |
| QVQLVESGGGLVQAGGSLRLTCAASGPIFVLYAMGWYRQAPGKERELVAAISTSGGSTYYADSVKGRFTISRDNAKNTVYLQMNSLKPEDTAVYYCAADRSARFLFIQYYPYGMDYWGQGTQVTVSS | high polyreactivity |

| Sequence | polyreactivity (PSR sort gate) |
| --- | --- |
| HVQLVETGGGLVQAGGSLRLSCAASGSTFYIYAMGCYRPAPGKEREFVAAIDFSGSSTYADSVKGRFTISRDNAKNTVYLQMNSLKPEDTAVYYCSARWYLTGGWTWVSFSHDYWGQGTQVTVSS | low polyreactivity |
| QVQLVESGGGLVQAGGSLRLSCAASGSIFSRYAMGWYRQAPGKERELVAAINGRGSRTYYADSVKGRFTISRDNAKNTVYLQMNSLKPEDTAVYYCAAGRSRLYGPRYFIYKYNYWGQGTQVTVSS | high polyreactivity |
| QVQLVESGGGLVQAGGSLRLSCAASGIIFLDNARGWYRQAPGKERELVAAYADSVKGRFTISRDNAKNTVYLQMNSLKPEDTAVYYCNAGWFRNYGFSIVTYDYWGHGTQVTVSS | low polyreactivity |
| QVQLVESGGGLVQAGGSLRLSCAASGRISVFNAMGWYRQAPGKERELVATITDGGSTYYADSVKGRFTISRDNAKNSVYLQMNSLKPEDTAVYYCAKKQVTTDVSSETFVLEMDYLGQGTQVTVSS | low polyreactivity |
| QVQLVESGGGLDQAGGSLRLTCAASGITFTQYAMGWYRQAPGKEREFVAGITFSGSSTYYADSVKGRFTISRDNAKNTVYLQMNSLKPEDTAVYYCAAESWYKYIYGYPRLFDYWGQATQVTVSS | low polyreactivity |
| QVQLVESGGGLVQAGGSLRLSGAASGFISFPYAMGWDTQATGKERELVASITRSGGNTYYADSVKGRFTISRDNEKNTVYLQMNSLKPEDTAVYYCNAQIYTYRSGRGYSRMDYWGEGTQVTVSS | high polyreactivity |
| QVQLVESGGGLVQAGGSLRLSCAASGRIFQYYAMGWYRQAPGKERELVASISGRGGRTYYADSVKGRLTISRDNAKNTVYLQMNSLKPEDTAVYYCNAVFSTIRYIRSYNYWGQGTQVTVSS | high polyreactivity |
| QVQLVESGGGLVQAGGSLRLSCAASASIFWYNSMGWYRQAPGKEREFVDSISGSGTSTYADSVKGRFTISRDNAKNTVYLQMNSLKPEDTAVYYCIAYYEYSWLYSNWLYGKYDYWGQGTQVTVSS | low polyreactivity |
| QVQLVESGGGLVQAGGSLRLSCAASGRIFGAYAMGWYRQAPGKERELVAAITFRGGSTYYADSVKGRFTISRDNAKNTVYLQMNSLKPEDTAVYYCAADILDYLHIYDYWGQGTQVTVSS | low polyreactivity |
| QVQLVESGGGLVQAGGSLRLSCAASGFIFEWYAMGWYRQAPGKERELVAGIDSGSTYADSVKGRFTISRDNAKNTVYLQMNSLKPEDTAVYYCAKRSDAVIQRTYRYDYWGQGTQVTVSS | low polyreactivity |
| QVQLVESGGGLVQAGGTLRLSCAASGIIFNYYAMGWYRHAPGKERELVAAITRGGRTNYADSVKGRFTISRDNAKNTVYLQMNSLKPEDTAVYYCNAPAFYKYKSFYAHSGYDYWGQGTQVTVSS | high polyreactivity |
| QVQLVESGGGLVQAGGSLRLSCAASGIIFYGYVMGWYRQAPGKERELVATSTSSGGSTYYADSVKGRFTISRDNAKNTGYLQMNSLKPEDTAVYYCAADYDYGAWVRHDYWGQGTQVTVSS | low polyreactivity |
| QVQLVDSGGALVQAGGSLRLRCAASGSTFFPNAKGWYRQAPGKERELVATIKYADSVKGRFTISRYNAKNTVYLQMNSLKPEDTAVYYCAGGGRVRYDYWGQGTQVTVSS | low polyreactivity |
| QVQLVESGGGLVQAGGSLRLSCAASGSIFSLYAMGWYRQAPGKERELVAAITTSGGRTYYADSVKGRFTISRDNAKNTVYLQMNSLKPVDTAVYYCAKRYSTPYLTDNFLSGPGYYYWGQGTQVTVSS | high polyreactivity |
| QVQLVESGGGLVQAGGTLRLSCAASGIIFLVNAMGWYRQAPGKERELVATITSGGSTYADSVKGRFTISRDNAKNTVYLQMNSLKPEDTAVYYCAAVRRRRNSYGYWGQGTQVTVSS | high polyreactivity |
